# Experimental data published in publication PMC8091058, “Distinct intramolecular interactions regulate autoinhibition of vinculin binding in αT-catenin and αE-catenin” (The Journal of Biological Chemistry, 2021).
# Positions count from the first letter of the chain named. Names may count otherwise.
# B1: αT-catenin head region (aa 1–659) (domain or fragment, Mus musculus, UniProt Q65CL1 1-659, looked up)
# chain: MSAETPITLNMDTQDLQIQTFTVEKLLEPLIIQVTTLVNCPQNPSNRKKGRSKRARVLLASVEEATWNLLDKGEMIAKEATVLKEELAAALQEVRKESKALKVSAERFTDDPCYLPKREAVVQAARALLAAVTRLLVLADMIDVMCLLQHVSSFQRTFESLKNVSNKSDLQRTYQKLGKELESLDYLAFKRQQDLKSPSQRDEIAGARATLKENSPLLHSICSACLEHSDVASLKASKDTVCEEIQNALDVISNASQGIQNAPAPPEPQAATLGSAFDELENLIVLNPLTVTEEDVRPSLEKRLEAIISGAALLADSSCTRDLHRERIIAECNAIRQALQDLLTEYMSNTGKTERSNTLNTAIVNMSKKTRDLRRQLRKAIIDHISDSFLDTTVPLLVLIEAAKNGRVKEIKDYAAIFHEHTGRLVEVANLACSMSTNEDGIKIVRIAANHLETLCPQIINAALALASRPKSQVVKNTMEMYKRTWEHYIHVLTEAVDDITSIDDFLAVSESHILEDVNKCIIALRDQDADNLDRAAGAIRGRAARVAHIVAGEMDSYEPGAYTEGVMRNVNFLTSTVIPEFVTQVNVALDALSKNSLTALDDNQFVDISKKIYDTIHDIRCSVMMIRTPEELEDVSDLEDDHEVRSHTSIQTEGKTDR
# notes: αT-catenin, Mus musculus, head region (N- and M-domains), aa 1-659; in pGEX-TEV; also called αT-catenin head (1–659); αT-catenin N1-M3 (aa 1–659); source: E. coli BL21-Gold, purified (glutathione-agarose, TEV cleavage, Mono Q or Mono S, S200)
# B2: αT-catenin V94D N1-N2 (domain or fragment, Mus musculus, UniProt Q65CL1 1-259, looked up)
# chain: MSAETPITLNMDTQDLQIQTFTVEKLLEPLIIQVTTLVNCPQNPSNRKKGRSKRARVLLASVEEATWNLLDKGEMIAKEATVLKEELAAALQEDRKESKALKVSAERFTDDPCYLPKREAVVQAARALLAAVTRLLVLADMIDVMCLLQHVSSFQRTFESLKNVSNKSDLQRTYQKLGKELESLDYLAFKRQQDLKSPSQRDEIAGARATLKENSPLLHSICSACLEHSDVASLKASKDTVCEEIQNALDVISNASQGI
# notes: αT-catenin N1-N2 (aa 1-259) with V94D, a point mutation linked to arrhythmogenic ventricular cardiomyopathy in humans; also called V94D mutant; source: E. coli BL21-Gold, purified (glutathione-agarose, TEV cleavage, Mono Q or Mono S, S200)
# B3: αT-catenin N1-N2 (aa 1–259) (domain or fragment, Mus musculus, UniProt Q65CL1 1-259, looked up)
# chain: B2 chain with D94V
# notes: αT-catenin, Mus musculus, N1-N2, aa 1-259; in pGEX-TEV; also called αT-catenin WT N1-N2; αT-catenin N1-N2 (1–259); source: E. coli BL21-Gold, purified (glutathione-agarose, TEV cleavage, Mono Q or Mono S, S200)
# B4: 2I27–αT-catenin M1-M3–2I27 259-667 (protein)
# chain: IQNAPAPPEPQAATLGSAFDELENLIVLNPLTVTEEDVRPSLEKRLEAIISGAALLADSSCTRDLHRERIIAECNAIRQALQDLLTEYMSNTGKTERSNTLNTAIVNMSKKTRDLRRQLRKAIIDHISDSFLDTTVPLLVLIEAAKNGRVKEIKDYAAIFHEHTGRLVEVANLACSMSTNEDGIKIVRIAANHLETLCPQIINAALALASRPKSQVVKNTMEMYKRTWEHYIHVLTEAVDDITSIDDFLAVSESHILEDVNKCIIALRDQDADNLDRAAGAIRGRAARVAHIVAGEMDSYEPGAYTEGVMRNVNFLTSTVIPEFVTQVNVALDALSKNSLTALDDNQFVDISKKIYDTIHDIRCSVMMIRTPEELEDVSDLEDDHEVRSHTSIQTEGKTDRAKMTQLPE
# modifications: 2I27 fusion at both ends
# B5: β-catenin (natural protein, Mus musculus, UniProt Q02248 1-781, looked up)
# chain: MATQADLMELDMAMEPDRKAAVSHWQQQSYLDSGIHSGATTTAPSLSGKGNPEEEDVDTSQVLYEWEQGFSQSFTQEQVADIDGQYAMTRAQRVRAAMFPETLDEGMQIPSTQFDAAHPTNVQRLAEPSQMLKHAVVNLINYQDDAELATRAIPELTKLLNDEDQVVVNKAAVMVHQLSKKEASRHAIMRSPQMVSAIVRTMQNTNDVETARCTAGTLHNLSHHREGLLAIFKSGGIPALVKMLGSPVDSVLFYAITTLHNLLLHQEGAKMAVRLAGGLQKMVALLNKTNVKFLAITTDCLQILAYGNQESKLIILASGGPQALVNIMRTYTYEKLLWTTSRVLKVLSVCSSNKPAIVEAGGMQALGLHLTDPSQRLVQNCLWTLRNLSDAATKQEGMEGLLGTLVQLLGSDDINVVTCAAGILSNLTCNNYKNKMMVCQVGGIEALVRTVLRAGDREDITEPAICALRHLTSRHQEAEMAQNAVRLHYGLPVVVKLLHPPSHWPLIKATVGLIRNLALCPANHAPLREQGAIPRLVQLLVRAHQDTQRRTSMGGTQQQFVEGVRMEEIVEGCTGALHILARDVHNRIVIRGLNTIPLFVQLLYSPIENIQRVAAGVLCELAQDKEAAEAIEAEGATAPLTELLHSRNEGVATYAAAVLFRMSEDKPQDYKKRLSVELTSSLFRTEPMAWNETADLGLDIGAQGEALGYRQDDPSYRSFHSGGYGQDALGMDPMMEHEMGGHHPGADYPVDGLPDLGHAQDLMDGLPPGDSNQLAWFDTDL
# notes: β-catenin, Mus musculus, full length; in pGEX-TEV; source: E. coli BL21-Gold, purified (glutathione-agarose, TEV cleavage, Mono Q or Mono S, S200)
# Experiments:
# β-catenin = molecular target: B5; assay: ITC; β-catenin (110-150 μM) or β-catenin–Ncad_(cyto) complex (103-158 μM) injected into αT-catenin fragment in the cell; 25 °C; 20 mM Hepes pH 8.0, 150 mM NaCl, 1 mM TCEP; details: both partners purified
# [1] = molecular target: T1, β-catenin–N-cadherin cytoplasmic tail complex (Mus musculus | , UniProt Q02248 1-781; P15116 746-906); assay: as above; details: both partners purified
# T1 construct: β-catenin, Mus musculus, full length; N-cadherin cytoplasmic tail (Ncad_(cyto)); the methods name no plasmid for the N-cadherin tail; also called β-catenin–Ncad_(cyto); β-cat–Ncad_(cyto); source: β-catenin: E. coli BL21-Gold, purified
# T1 sequence (looked up) 1: B5 chain
# T1 sequence (looked up) 2: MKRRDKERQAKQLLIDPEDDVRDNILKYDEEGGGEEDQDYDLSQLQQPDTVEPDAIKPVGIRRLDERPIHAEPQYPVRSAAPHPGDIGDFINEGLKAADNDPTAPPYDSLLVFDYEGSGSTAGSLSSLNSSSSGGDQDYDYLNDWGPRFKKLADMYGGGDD
# [2] = molecular target: the molecule itself; assay: SEC; analytical SEC of 30 μM protein
# vinculin D1 = molecular target: T2, vinculin D1 (Mus musculus, UniProt Q64727); assay: ITC
# T2 chain: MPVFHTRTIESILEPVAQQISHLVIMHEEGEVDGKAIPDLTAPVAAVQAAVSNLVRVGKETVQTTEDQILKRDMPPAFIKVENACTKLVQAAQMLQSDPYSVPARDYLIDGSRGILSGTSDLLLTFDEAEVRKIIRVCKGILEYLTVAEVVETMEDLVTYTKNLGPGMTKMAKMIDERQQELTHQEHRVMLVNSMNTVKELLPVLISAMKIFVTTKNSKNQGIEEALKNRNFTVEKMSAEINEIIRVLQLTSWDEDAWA
# [3] = molecular target: B1; assay: ITC; β-catenin (110-150 μM) or β-catenin–Ncad_(cyto) complex (103-158 μM) injected into αT-catenin fragment in the cell; 25 °C; 20 mM Hepes pH 8.0, 150 mM NaCl, 1 mM TCEP; details: both partners purified
binder,measurement,setting,value
B1,Kd,β-catenin,264 ± 109 nM
same,Kd,[1],5.6 ± 0.6 nM
B2,stoichiometry N,[2],2
B3,Kd,[1],6.9 ± 12 nM
B4,Kd,vinculin D1,~250 nM
B5,dH,[3],-14.6 ± 2.1 kcal/mol
